Primed or numbered codes have the meaning given here. Where no end group is shown, it is not given here. [ ]: non-standard residue; d: D form. The star is where a group is joined. Phe(2-Cl) = N[C@@H](Cc1ccccc1Cl)C(=O)O; Phe(4-F) = N[C@@H](Cc1ccc(F)cc1)C(=O)O; 2Nal = N[C@@H](Cc1ccc2ccccc2c1)C(=O)O; Phg = N[C@H](C(=O)O)c1ccccc1; 4Abz = Nc1ccc(C(=O)O)cc1; Ac6c = NC1(C(=O)O)CCCCC1; Heptanoyl = CCCCCCC(=O)*; Nle = CCCC[C@H](N)C(=O)O; Bz′ = not defined here; Ac3c = NC1(C(=O)O)CC1; Inp = O=C(O)C1CCNCC1; Tfa = O=C(C(F)(F)F)*; βAla = NCCC(=O)O

Assay [1] deals with T1, MC1-R (B-16 mouse melanoma cells) (Mus musculus, UniProt Q01727).
T1 construct: B-16 mouse melanoma cells (containing MC1-R); endogenous in cells; host or cells: B-16 mouse melanoma cells
Description: Competitive inhibition binding assay, 125I-NDP-alpha-MSH, B-16 mouse melanoma cell membranes. To be noted: 0.4 nM 125I-NDP-alpha-MSH. The method, then: (§1) Representative Peptides of this Invention. Representative peptides of this invention were made using library and synthesis methods described herein, and selected peptides were tested using a binding assay. […] The peptides were synthesized using conventional peptide synthesis methods, and were complexed with rhenium using the methods described herein.
(§2) The competitive inhibition binding assay was conducted using membranes prepared from hMC4-R and B-16 mouse melanoma cells (containing MC1-R) using 0.4 nM ^125I-NDP-alpha-MSH (New England Nuclear, Boston, Mass., USA) in 50 mM HEPES buffer containing 1 mM MgCl2, 2 mM CaCl2, and 5 mM KCl, at pH 7.2. The assay tube also contained a chosen concentration of the test peptide of this invention, complexed to a rhenium metal ion as indicated, for determining its efficacy in inhibiting the binding of ^125I-NDP-alpha-MSH to its receptor. Non-specific binding was measured by complete inhibition of binding of ^125I-NDP-alpha-MSH in the assay with the presence of 1 μM alpha-MSH. Incubation was for 90 minutes at room temperature, after which the assay mixture was filtered and the membranes washed three times with ice cold buffer. The filter was dried and counted in a gamma counter for remaining radioactivity bound to the membranes. 100% specific binding was defined as the difference in radioactivity (cpm) bound to cell membranes in the absence and presence of 1 μM alpha-MSH. The cpm obtained in presence of test compounds were normalized with respect to 100% specific binding to determine the percent inhibition of ^125I-NDP-alpha MSH binding. […]

The target of the next assay is T2, hMC4-R (Homo sapiens, UniProt P32245).
T2 construct: expressed in transfected cells; host or cells: 293 cells
As to the kind of experiment: Competitive inhibition binding assay, 125I-NDP-alpha-MSH, hMC4-R membranes. To be noted: 0.4 nM 125I-NDP-alpha-MSH. The method, then:
as §1, §2

[2] abbreviates: Conc. cut off 10 μM, B-16 mouse melanoma cell membranes.
Where [3] appears, read: Conc. cut off 10 μM, hMC4-R membranes.
Where [4] appears, read: Conc. cut off 10 μM test peptide.
Where [5] appears, read: Conc. cut off 1 μM, B-16 mouse melanoma cell membranes.
[6] abbreviates: Conc. cut off 1 μM, hMC4-R membranes.
The mark [7] stands for this setting: Conc. cut off 1 μM test peptide.

T1 sequence (Q01727 whole entry): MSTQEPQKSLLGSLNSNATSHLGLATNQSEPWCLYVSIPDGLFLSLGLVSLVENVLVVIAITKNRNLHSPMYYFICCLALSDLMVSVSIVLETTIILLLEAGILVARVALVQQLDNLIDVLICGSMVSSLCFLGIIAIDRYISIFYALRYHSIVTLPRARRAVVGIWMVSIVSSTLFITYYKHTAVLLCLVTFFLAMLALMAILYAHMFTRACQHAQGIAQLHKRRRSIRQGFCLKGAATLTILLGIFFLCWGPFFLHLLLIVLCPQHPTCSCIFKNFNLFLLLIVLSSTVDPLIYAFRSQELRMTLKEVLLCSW
T2 sequence (P32245 whole entry): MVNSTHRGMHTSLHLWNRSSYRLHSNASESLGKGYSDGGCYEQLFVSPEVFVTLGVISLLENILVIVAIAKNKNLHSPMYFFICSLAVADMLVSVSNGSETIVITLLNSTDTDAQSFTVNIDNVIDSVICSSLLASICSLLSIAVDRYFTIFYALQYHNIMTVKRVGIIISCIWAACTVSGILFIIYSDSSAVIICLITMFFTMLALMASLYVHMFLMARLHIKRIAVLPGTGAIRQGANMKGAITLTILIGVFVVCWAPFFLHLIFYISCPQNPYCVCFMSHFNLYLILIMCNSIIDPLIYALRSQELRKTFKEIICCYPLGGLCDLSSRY

Take “PL-1344 (Heptanoyl-RFHCW-NH2; also: ReO[V] metal complex)”: the “% Inhibition MC1-R (B-16)” value in assay [1] (setting [2]) is listed as 89%. In addition, the “% Inhibition MC4-R” value with hMC4-R (setting [3]) was 81%.

Take “PL-1655 (Ac-HFRCW-NH2; also: ReO[V] metal complex)”: the “% Inhibition MC1-R (B-16)” value in assay [1] (setting [4]) is reported as 45%. Also, the “% Inhibition MC4-R” value with hMC4-R (setting [4]) was determined as 51%.

As to “PL-811 (Ac-H[Phg]CW-NH2; also: ReO[V] complex)”, the “% Inhibition MC1-R (B-16)” value in assay [1] (setting [5]) is −5%. Besides, the “% Inhibition MC4-R” value in the assay with hMC4-R (setting [6]) was 0%.

In the case of “PL-1096 ([βAla]GLCW-NH2; also: ReO complex)”, the “% Inhibition MC1-R (B-16)” value in assay [1] (setting [2]) is listed as 6%. Besides, the “% Inhibition MC4-R” value with hMC4-R (setting [3]) stood at 12%.

“PL-1092 ([βAla]GK(Tfa)CW-NH2; also: ReO complex)”: the “% Inhibition MC1-R (B-16)” value in assay [1] (setting [5]) came out at 4%. Besides, in the assay with hMC4-R (setting [6]), the “% Inhibition MC4-R” value was 4%.

In the case of “PL-1635 (Ac-[Nle]RA[Ac3c]CW-NH2; also: ReO[V] complex)”, in assay [1] (setting [7]), the “% Inhibition MC1-R (B-16)” value amounted to 14%. In the assay with hMC4-R (setting [7]), the “% Inhibition MC4-R” value is 43%.

Consider “PL-1514 (Ac-RFFNFC-NH2; also: ReO[V] metal complex)”, for which, in assay [1] (setting [7]), the “% Inhibition MC1-R (B-16)” value amounted to 28%. Besides, the “% Inhibition MC4-R” value with hMC4-R (setting [7]) was determined as 30%.

For the substance “PL-1412 (FHCW-NH2; also: ReO[V] metal complex)”, the “% Inhibition MC1-R (B-16)” value in assay [1] (setting [5]) came out at 43%. In addition, the “% Inhibition MC4-R” value with hMC4-R (setting [6]) was 54%.

On to “PL-1621 (Ac-[Nle]AH[Ac6c]RCW-NH2; also: ReO[V] complex)”, for which the “% Inhibition MC1-R (B-16)” value in assay [1] (setting [7]) is on record as 36%. The “% Inhibition MC4-R” value with hMC4-R (setting [7]) is given as 34%.

With “PL-1299 (Heptanoyl-[βAla]RCW-NH2; also: ReO[V] metal complex)”, the “% Inhibition MC1-R (B-16)” value in assay [1] (setting [5]) came to 1%. Further, the “% Inhibition MC4-R” value with hMC4-R (setting [6]) worked out at 19%.

As for “PL-1309 (Heptanoyl-CRCW-NH2; cysteine pairing not given here; also: ReO[V] metal complex)”, in assay [1] (setting [5]), the “% Inhibition MC1-R (B-16)” value worked out at 9%. Further, in the assay with hMC4-R (setting [6]), the “% Inhibition MC4-R” value worked out at 10%.

With “PL-1089 (Ac-A[Phe(4-F)]CW-NH2; also: ReO complex)”, the “% Inhibition MC1-R (B-16)” value in assay [1] (setting [2]) turned out to be 0%. In addition, the “% Inhibition MC4-R” value with hMC4-R (setting [3]) is given as 10%.

On to “PL-1861 (Ac-FFC[4Abz]K-NH2; also: ReO[V] complex)”, for which the “% Inhibition MC1-R (B-16)” value in assay [1] (setting [7]) amounted to 0%. Further, in the assay with hMC4-R (setting [7]), the “% Inhibition MC4-R” value is −14%.

Take “PL-1860 (Ac-FFC[Inp]K-NH2; also: ReO[V] complex)”: in assay [1] (setting [7]), the “% Inhibition MC1-R (B-16)” value is listed as 6%. In addition, the “% Inhibition MC4-R” value in the assay with hMC4-R (setting [7]) is on record as 0%.

As to “PL-1926 ({Bz′}-Arg-Trp-Cys-NH2; also: ReO[V] complex)”, the “% Inhibition MC1-R (B-16)” value in assay [1] (setting [7]) came out at 25%. In the assay with hMC4-R (setting [7]), the “% Inhibition MC4-R” value turned out to be 7%.

Consider “PL-1090 (Ac-AXCW-NH2; not fully specified (residue 2); printed as Ac-L-Ala-L-Tyr(3′,5′ di-I, 4′-Ac)-L-Cys-L-Trp-NH2; also: ReO[V] metal complex)”, for which, in assay [1] (setting [5]), the “% Inhibition MC1-R (B-16)” value amounted to 2%. Also, the “% Inhibition MC4-R” value with hMC4-R (setting [6]) is on record as 10%.

In the case of “PL-1094 ([βAla]G[Phe(2-Cl)]CW-NH2; also: ReO complex)”, the “% Inhibition MC1-R (B-16)” value in assay [1] (setting [2]) amounted to 57%. The “% Inhibition MC4-R” value with hMC4-R (setting [3]) stood at 19%.

For the substance “PL-1478 (Ac-RFFCS-NH2; also: ReO[V] metal complex)”, the “% Inhibition MC1-R (B-16)” value in assay [1] (setting [7]) is 28%. Also, in the assay with hMC4-R (setting [7]), the “% Inhibition MC4-R” value was found to be 21%.

For the substance “PL-1315 (Ac-RW[Nle]CF-NH2; also: ReO[V] metal complex)”, the “% Inhibition MC1-R (B-16)” value in assay [1] (setting [2]) is 69%. In the assay with hMC4-R (setting [3]), the “% Inhibition MC4-R” value was determined as 70%.

As to “PL-1505 (Ac-RF[2Nal]NCF-NH2; also: ReO[V] complex)”, in assay [1] (setting [7]), the “% Inhibition MC1-R (B-16)” value is 45%. The “% Inhibition MC4-R” value in the assay with hMC4-R (setting [7]) worked out at 29%.

These data come from patent US7049398B1, “Melanocortin metallopeptide constructs, combinatorial libraries and applications” (Palatin Technologies, Inc., priority 1999, dated 2006).
